Substrate in series [1]: O=c1c(O)c(-c2ccc(O)c(O)c2)oc2cc(O)cc(O)c12
The series is described as follows: UPLC-MS/MS glucosyltransferase kinetics. The format is biochemical, Aesculus chinensis. As to conditions: UDP-glucose 2 mM, pH 7.0 Tris-HCl, 10 mM DTT, 37 °C.

Substrate in series [2]: O=c1c(O)c(-c2ccc(O)cc2)oc2cc(O)cc(O)c12
The series can be described thus: UPLC-MS/MS glucosyltransferase kinetics. Type of series: biochemical, Aesculus chinensis. As to conditions: UDP-glucose 2 mM, pH 7.0 Tris-HCl, 10 mM DTT, 37 °C.

B1: AcUGT1 (Aesculus chinensis) (protein)
chain: MQKAELVFIPLPGVSHLISTVEIAKLLVGRDDRLSITVLIIKFPNFDSNVIAAYTRSLDRIKFIDLPNHFSDSDNSRTLFFSIIESQKPHVKEAVTKLTQSESLPAADSPRLAGFVLDMFCTCMIDVANDFGVPSYIFFTSGAAFLGLMFHAQFLHDELGKSTTDFKDSESDAELVVPSLANPVPARVLPSAMLSKEWSMHLNELSRRFRTTKGIMVNTFAELESYAVNSLSDGSKTQIPPLYPVGPILNLNGDNHVPERKAEIMEWLDDQPPSSVVFLCFGSMGSFDGDQLKEIACALEQSGHRFLWSVRQSPPKDKDKDKIVIPNDCENLTDVLPEGFLDRTVGIGKVIGWAPQVAVLGHPAVGGFVSHCGWNSTLESIWFGVPIATWPIYAEQQLNAFEMVRELGLAVEIKMDYRKDFITESVVELVTAEEIERGIRRLMESDNNDIRKKVKEMSEKSRRALMDGGSSFSSLGRFIGDVIDNIS
notes: cloned from mixed leaf, flower and seed cDNA into pMAL-c2x (MBP-fusion vector), expressed in Escherichia coli
For B1, in series [1], the Km stood at 1.02 ± 0.23 µM and the kcat is on record as 5.34±0.01(10^-3) S^-1. Besides, in series [2], the Km worked out at 22.62 µM.

B2: AcUGT26 (Aesculus chinensis) (protein)
chain: MSSSRSQSHHVILFPFMSKGHTIPLLHLAQLLLRRPRVAVTVFTTPANRPFTSNFLRNTAASIIDLPFPENVPEIAPGIESTDKLPSMSLFVPFARATKLMQPDFERAVEAMPRVSFLVSDGFLWWTLESATKFGFPRFVFYGMNNYSGCVCRAVVENRLLYGRKSDDELVTVTGFPWIKVTRNDFEPTFTDPEPKGPMFDLVIDQVIATSNSYGLIVNSFYELESLFVEHKNREAKPKVWCVGPLCLADPLRVQDQLPPHQKPTWIQWLDQKLEQGRSVLYVAFGTQAEISEEQVKEISSGLEESKVNFLWVIRKKESELGDGFEKRVKERGLIVREWVDQREMLLHQSIHGFLSHCGWNSVMESICAGVPILAWPMMAEQPLNARMVVEEIKVGLRVETCNGSVRGFVKKEGLEKMVKELMEGEKGKEVRKKAKEYAEMARKAMDEDNGSSCRTLDMLMAEISNSKSQDKMEV
notes: as for B1
Take B2: in series [1], the Km amounted to 2.23 ± 0.06 µM and the kcat was 0.65±0.02(10^-3) S^-1.

By Km is commonly meant the concentration of substrate that gives half-maximal velocity.

The values above are taken from article PMC8850972, “Unraveling the Glucosylation of Astringency Compounds of Horse Chestnut via Integrative Sensory Evaluation, Flavonoid Metabolism, Differential Transcriptome, and Phylogenetic Analysis” (Frontiers in Plant Science, 2022).
